In general, koff refers to the first-order rate constant of dissociation. Usually Kd stands for a measure of binding affinity in units of concentration. By kon is commonly meant the rate constant with which the complex forms.

These results are taken from patent US20240343814A1.

Test [1] concerns the target Recombinant human his-tagged IGF 1R extracellular domain protein (human) (UniProt P08069). Nature of the test: SPR, captured IgG, IGF-1R ECD-his analyte, dissociation pH 7.4; dissociation at pH 7.4. For orientation: SPR reads the build-up and loss of mass on a sensor chip optically.
The target is the same in test [2]. The test can be described thus: SPR, captured IgG, IGF-1R ECD-his analyte, dissociation pH 6.
For test [3] the target is unchanged. The test can be described thus: SPR, captured IgG, IGF-1R ECD-his analyte, dissociation pH 7.4.

B1: VRDN-02514 (antibody, V domains shown)
VH: EVQLVQSGGGLVKPGGSLRLSCAASGFTFSSFAMHWVRQAPGKGLEWISVIDTRGHTYYADSVKGRFTISRDNAKNSLYLQMNSLRAEDTAVYYCARLGNFYYGMDVWGQGTTVTVSS
VL: EIVLTQSPGTLSVSPGERATLSCRASQSIGSSLHWYQQKPGQAPRLLIKYASQSLSGIPDRFSGSGSGTDFTLTISRLEPEDFAVYYCHQSSRLPHTFGQGTKVEIK
Consider B1, for which the koff in test [1] is < 1e-06 s⁻¹; in test [2], 1e-06 s⁻¹. Also, the results for the Kd in test [2] and in test [3] were 0.0283 nM and < 9.26 pM, respectively. Moreover, the on-rate (kon) in test [2] turned out to be 35300 M⁻¹ s⁻¹; in test [3] it was 108000 M⁻¹ s⁻¹.
